{"source": "the nanobody polyreactivity screen of Harvey et al. (2022)", "data": [{"assay": "yeast display, Sf9 membrane polyspecificity reagent, FACS + sequencing; frameworks hold sequencing errors", "method_in_brief": "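Using colony PCR, genes from sorted yeast display clones were amplified, then sequenced on MiSeq at 2 × 250 and filtered by CDR length. The clones had been stained with 10% biotinylated, detergent-solubilized Sf9 membrane reagent for 1 hour at 4 °C and sorted by FACS into low and high (top ~1%) gates on anti-HA and streptavidin fluorescence. Polyreactivity labels come from the gate of origin.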", "values": [{"sequence": "QVKLVESAGGLVQAGGSLRLSCPASGRTFYRYVMGWSRQEPGKERELVAAITPGGSTYADSVKGRFTISRDNAKNTVYLQMNSLKPEDTAVYYCNKRKASSSGYNYWGQGTQVTVSS", "polyreactivity (PSR sort gate)": "low polyreactivity"}, {"sequence": "QVQLVESGGGLVQAGGSLRLSCAASGFNFGGYAMGWYRQAPGKERELVARITRSGGSTYYADSVKGRFTISRDNAKNTVYLQMNSLKPEDTAVYYCNADTPPNPYYYWGQGTQVTVSS", "polyreactivity (PSR sort gate)": "low polyreactivity"}, {"sequence": "QVQLVESGGGLVQAGGSLRLSCAASGSTIYGYGMGWYRQAPGKERELVAAITGSGDTTYYADSVKGRFTISRDNAKNNVYLQMNSLKPEDTAVYYCNARWHAEYDYWGQGTQVTVSS", "polyreactivity (PSR sort gate)": "low polyreactivity"}, {"sequence": "QVQLVESGGGLVQAGGSLRLSCAASGRIFAAYAMGWYRQAPGKERELVASISRGGSTNYADSVKGRFTISRDNAKNTVYLQMNSLKPEDTAVYYCAARQGSTYYAYYYWGQGTQVTVSS", "polyreactivity (PSR sort gate)": "high polyreactivity"}, {"sequence": "QVQLVESGGGLVQAGGSLRLSCAASGRIFYYYAMVWYRQAPGKERELVAAITRRGGSTYYADSVKGRFTISRDNAMNTVYLLMNSLKPEDTAVYYCAKPVRTGWLDGDYWGQGTQVTVSS", "polyreactivity (PSR sort gate)": "low polyreactivity"}, {"sequence": "QVQLVESGGGLVQAGGSLRLSCDASGFILSSNAMGWYRQAPGKERELVAAISSSGRTYYTDSVKGRFTISRDNAKNTVYLQMNSLKPEDTAVYYCAAGGYYYAIGYWGQGTQVTLSS", "polyreactivity (PSR sort gate)": "high polyreactivity"}, {"sequence": "QVQLVESGGGLVQAGGSLRLSCAASGIIFDYYAMGWYRQAPGKERELVAAISKRGGSTYYADSVKGRFTISRDNAKNTVYLQMNSLKPEDTAVYYCAAEYSKRWWYYYWGQGTQVTVSS", "polyreactivity (PSR sort gate)": "high polyreactivity"}, {"sequence": "QVQLVESGGGLVQAGGSLRLSCAASGSTFYVYAMGWYRQAPGKERELVAAISKRGGTTYYADSVKGRFTISRDNAKNTVYLQMNSLKPEDTAVYYCATVSSSRDHDYWGQGTQVTVSS", "polyreactivity (PSR sort gate)": "high polyreactivity"}, {"sequence": "QVQLVESGGGLVQAGGSLRLSCAASGRIFVHYVMGWYRQAPGKERELVAAITVSGGGTYYADSVKGRFTISRDNAKNTVYLQMNSLKPEDTAVYYCNAVPHPYDWGQGTQVTVSS", "polyreactivity (PSR sort gate)": "low polyreactivity"}, {"sequence": "QVQLVESGGGLVQAGGSLRLSCAASGIFSYYAMGWYRQAPGKERELVATISRRGSSTYYADSVKGRFTISRDNAKNTVYLQMNSLKPEDTAVYYCNADIGWGRFSQSFDYWGQGTQVTVSS", "polyreactivity (PSR sort gate)": "low polyreactivity"}, {"sequence": "QDQLVESGGVLVQAGGSLRLSCAASGFIFNRYAMGWYRQAPWKERELVAANTRTGSTNYADSVKGRFTISRYNAKYTVYLQMSCLKPEDTAVFYCAAVYLSLGRPYYTFEYWGQGTQVTVSS", "polyreactivity (PSR sort gate)": "high polyreactivity"}, {"sequence": "QDQLVESGGGLVQAGGSLRLSCAASGRIFYYNAIGWYRQAPGKEMELVATITRAGGTYYADSVKGRFTISRDNAKNTVYLQMNSLKPEDTAVYYCAKRHPIVDDYKGDYWGQGTQVTVSS", "polyreactivity (PSR sort gate)": "low polyreactivity"}, {"sequence": "QVQLVESGGGLVEAGGSLRLTCAASGYIIGGNAMGWYRQAPGKERELVAVISSRGGRTYYSDSVKGRFTISRDNAKNTVYLQLNSLKPEDTEVYYCYRVFSYQYKRDYWGQGTQVTVSS", "polyreactivity (PSR sort gate)": "high polyreactivity"}, {"sequence": "QVQLVESGGGLVQAGGSLRLSCAASGSIIGRNVMGWYRQAPGKERELVAVITGSGGGTYYADSVKGRFTISRDNAKNTVYLQMNSLKPEDTAVYYCAARKRGTFTYDYWGQGTQVTVSS", "polyreactivity (PSR sort gate)": "high polyreactivity"}, {"sequence": "QVQLVESGGGLVQAGGSLRLSCAASGFIFRYYAMGWYRQAPGKERELVAAITRSGDNTYYADSVKGRFTISRDNAKNTVYLQMNSLKPEDTAVYYCAARDVQYQQALGGDYWGQGTQVTVSS", "polyreactivity (PSR sort gate)": "low polyreactivity"}, {"sequence": "QVQLVESGGGLVQAGGSLRLSCAASGYIFWWNAMGWYRQAPGKERELVAGISWSGSPTYYADSVKGRFTITRDNAKNTVYLQMNSLKPEDTAVYYCNAAAITLYDYDYWGQGTQVTVSS", "polyreactivity (PSR sort gate)": "low polyreactivity"}, {"sequence": "QVQLVESGGGLVQAGGSLRLSCAASGRTFVYYDMGWYRQAPGKERELVASINWSGGSTYYADSVKGRFTISRDNAKNTVYLQMNSLKPEDTAVYYCAKEEITEWGVDSWGQGTQVTVSS", "polyreactivity (PSR sort gate)": "low polyreactivity"}]}]}
